Test results reported in patent publication US20170355766A1 (Xencor, published 2017).

T1: human H131 FcγRIIa receptor protein (6xHis and GST tags) (human, UniProt P12318 34-217, limits assumed)
T1 construct: also called HIIa
T1 sequence (looked up): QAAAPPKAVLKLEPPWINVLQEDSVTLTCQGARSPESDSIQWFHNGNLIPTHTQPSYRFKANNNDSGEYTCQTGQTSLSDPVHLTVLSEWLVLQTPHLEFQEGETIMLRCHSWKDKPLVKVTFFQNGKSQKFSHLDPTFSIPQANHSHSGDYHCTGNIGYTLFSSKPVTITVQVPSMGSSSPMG

T2: human FcγRIIb receptor protein (R&D Systems) (human, UniProt P31994 46-217)
T2 construct: Analyte injected over antibodies captured on a protein A/G chip (Biacore); also called CD32b
T2 sequence (looked up): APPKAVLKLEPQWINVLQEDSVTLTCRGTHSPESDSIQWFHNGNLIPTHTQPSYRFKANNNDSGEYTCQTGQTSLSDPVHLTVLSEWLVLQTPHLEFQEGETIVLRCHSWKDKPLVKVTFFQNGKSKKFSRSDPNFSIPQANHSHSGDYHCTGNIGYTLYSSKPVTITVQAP

T3: FcγRIIaR (human, UniProt P12318)
T3 construct: recombinant receptor protein with 6xHis and GST tags; also called R131 FcγRIIa
T3 sequence (receptor, looked up): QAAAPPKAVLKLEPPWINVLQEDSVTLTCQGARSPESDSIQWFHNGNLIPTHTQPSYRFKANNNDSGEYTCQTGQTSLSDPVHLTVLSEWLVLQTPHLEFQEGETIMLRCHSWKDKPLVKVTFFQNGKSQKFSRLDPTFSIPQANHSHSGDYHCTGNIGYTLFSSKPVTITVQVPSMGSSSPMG


How the values were obtained:
Experiment in all cases: SPR (Biacore)
[1] = target: T1, human H131 FcγRIIa receptor protein …
[2] = target: T2, human FcγRIIb receptor protein (R&D …)
[3] = target: T4, human V158 FcγRIIIa receptor protein (6xHis and GST tags) (human, UniProt P08637 17-208, limits assumed)
T4 construct: also called VIIIa

FcγRIIIaF = target: T5, FcγRIIIaF (human, UniProt P08637)
T5 construct: recombinant receptor protein with 6xHis and GST tags; also called F158 FcγRIIIa

FcγRIIaR = target: T3, FcγRIIaR
[4] = target: T6, human FcγRI receptor protein (R&D Systems) (human, UniProt P12314 16-288)
T6 construct: also called CD64
T6 sequence (P12314 16-288 limits assumed): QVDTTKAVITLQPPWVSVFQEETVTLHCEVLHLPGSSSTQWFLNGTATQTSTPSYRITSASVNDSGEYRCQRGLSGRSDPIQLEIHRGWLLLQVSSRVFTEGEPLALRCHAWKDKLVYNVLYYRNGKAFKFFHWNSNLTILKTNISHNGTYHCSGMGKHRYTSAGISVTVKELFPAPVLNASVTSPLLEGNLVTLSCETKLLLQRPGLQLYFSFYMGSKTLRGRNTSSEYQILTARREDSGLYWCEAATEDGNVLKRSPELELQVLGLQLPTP

T4 sequence (P08637 17-208 F176V limits assumed): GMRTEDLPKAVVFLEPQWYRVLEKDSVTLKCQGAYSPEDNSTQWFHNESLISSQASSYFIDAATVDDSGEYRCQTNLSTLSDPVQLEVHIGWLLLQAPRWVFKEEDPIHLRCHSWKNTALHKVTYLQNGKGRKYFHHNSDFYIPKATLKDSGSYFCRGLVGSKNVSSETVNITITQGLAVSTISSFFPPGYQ
T5 sequence (P08637 17-208 limits assumed): as the sequence (P08637 17-208 F176V limits assumed) above, with V160F counted along it

Fold FcγRIIaH [1] [fold] | Fold FcγRIIb [2] [fold] | binding result [3] | binding result (FcγRIIIaF) | Fold FcγRIIaR (FcγRIIaR) [fold] | Fold FcγRI [4] [fold] | Fold FcγRIIIaV [3] [fold] | binding result [1] | binding result [4] | Binder
0.167 | 1.54 | no binding | no binding | 0.758 | 0.0211 |  |  |  | G236D (antibody, human IgG1, kappa, HuAM4G7 IgG1 Fc variant) heavy: not shown light: DIVMTQSPATLSLSPGERATLSCRSSKSLQNVNGNTYLYWFQQKPGQSPQLLIYRMSNLNSGVPDRFSGSGSGTEFTLTISSLEPEDFAVYYCMQHLEYPITFGAGTKLEIKRTVAAPSVFIFPPSDEQLKSGTASVVCLLNNFYPREAKVQWKVDNALQSGNSQESVTEQDSKDSTYSLSSTLTLSKADYEKHKVYACEVTHQGLSSPVTKSFNRGEC
0.402 | 28.4 | no binding |  | 32.5 | 0.0176 |  |  |  | L235F/S267E (antibody, human IgG1, kappa, HuAM4G7 IgG1 Fc variant) heavy: not shown light: DIVMTQSPATLSLSPGERATLSCRSSKSLQNVNGNTYLYWFQQKPGQSPQLLIYRMSNLNSGVPDRFSGSGSGTEFTLTISSLEPEDFAVYYCMQHLEYPITFGAGTKLEIKRTVAAPSVFIFPPSDEQLKSGTASVVCLLNNFYPREAKVQWKVDNALQSGNSQESVTEQDSKDSTYSLSSTLTLSKADYEKHKVYACEVTHQGLSSPVTKSFNRGEC
1.35 | 1.05 |  |  | 1.28 | 0.00232 | 0.504 |  |  | L235Y (antibody, human IgG1, kappa, HuAM4G7 IgG1 Fc variant) heavy: not shown light: DIVMTQSPATLSLSPGERATLSCRSSKSLQNVNGNTYLYWFQQKPGQSPQLLIYRMSNLNSGVPDRFSGSGSGTEFTLTISSLEPEDFAVYYCMQHLEYPITFGAGTKLEIKRTVAAPSVFIFPPSDEQLKSGTASVVCLLNNFYPREAKVQWKVDNALQSGNSQESVTEQDSKDSTYSLSSTLTLSKADYEKHKVYACEVTHQGLSSPVTKSFNRGEC
0.157 | 69.9 |  |  | 48.2 | 0.0103 | 0.428 |  |  | L235Y/S267E/H268E (antibody, human IgG1, kappa, HuAM4G7 IgG1 Fc variant) heavy: EVQLVESGGGLVKPGGSLKLSCAASGYTFTSYVMHWVRQAPGKGLEWIGYINPYNDGTKYNEKFQGRVTISSDKSISTAYMELSSLRSEDTAMYYCARGTYYYGTRVFDYWGQGTLVTVSSASTKGPSVFPLAPSSKSTSGGTAALGCLVKDYFPEPVTVSWNSGALTSGVHTFPAVLQSSGLYSLSSVVTVPSSSLGTQTYICNVNHKPSNTKVDKKVEPKSCDKTHTCPPCPAPELYGGPSVFLFPPKPKDTLMISRTPEVTCVVVDVEEEDPEVKFNWYVDGVEVHNAKTKPREEQYNSTYRVVSVLTVLHQDWLNGKEYKCKVSNKALPAPIEKTISKAKGQPREPQVYTLPPSREEMTKNQVSLTCLVKGFYPSDIAVEWESNGQPENNYKTTPPVLDSDGSFFLYSKLTVDKSRWQQGNVFSCSVMHEALHNHYTQKSLSLSPGK light: DIVMTQSPATLSLSPGERATLSCRSSKSLQNVNGNTYLYWFQQKPGQSPQLLIYRMSNLNSGVPDRFSGSGSGTEFTLTISSLEPEDFAVYYCMQHLEYPITFGAGTKLEIKRTVAAPSVFIFPPSDEQLKSGTASVVCLLNNFYPREAKVQWKVDNALQSGNSQESVTEQDSKDSTYSLSSTLTLSKADYEKHKVYACEVTHQGLSSPVTKSFNRGEC
0.275 | 80.4 | no binding |  | 133 | 0.00057 |  |  |  | L235D/S267E/L328F (antibody, human IgG1, kappa, HuAM4G7 IgG1 Fc variant) heavy: EVQLVESGGGLVKPGGSLKLSCAASGYTFTSYVMHWVRQAPGKGLEWIGYINPYNDGTKYNEKFQGRVTISSDKSISTAYMELSSLRSEDTAMYYCARGTYYYGTRVFDYWGQGTLVTVSSASTKGPSVFPLAPSSKSTSGGTAALGCLVKDYFPEPVTVSWNSGALTSGVHTFPAVLQSSGLYSLSSVVTVPSSSLGTQTYICNVNHKPSNTKVDKKVEPKSCDKTHTCPPCPAPELDGGPSVFLFPPKPKDTLMISRTPEVTCVVVDVEHEDPEVKFNWYVDGVEVHNAKTKPREEQYNSTYRVVSVLTVLHQDWLNGKEYKCKVSNKAFPAPIEKTISKAKGQPREPQVYTLPPSREEMTKNQVSLTCLVKGFYPSDIAVEWESNGQPENNYKTTPPVLDSDGSFFLYSKLTVDKSRWQQGNVFSCSVMHEALHNHYTQKSLSLSPGK light: DIVMTQSPATLSLSPGERATLSCRSSKSLQNVNGNTYLYWFQQKPGQSPQLLIYRMSNLNSGVPDRFSGSGSGTEFTLTISSLEPEDFAVYYCMQHLEYPITFGAGTKLEIKRTVAAPSVFIFPPSDEQLKSGTASVVCLLNNFYPREAKVQWKVDNALQSGNSQESVTEQDSKDSTYSLSSTLTLSKADYEKHKVYACEVTHQGLSSPVTKSFNRGEC
1.05 | 116 |  |  | 98.9 | 1.07 | 2.6 |  |  | L235Y/S239D/S267E (antibody, human IgG1, kappa, HuAM4G7 IgG1 Fc variant) heavy: EVQLVESGGGLVKPGGSLKLSCAASGYTFTSYVMHWVRQAPGKGLEWIGYINPYNDGTKYNEKFQGRVTISSDKSISTAYMELSSLRSEDTAMYYCARGTYYYGTRVFDYWGQGTLVTVSSASTKGPSVFPLAPSSKSTSGGTAALGCLVKDYFPEPVTVSWNSGALTSGVHTFPAVLQSSGLYSLSSVVTVPSSSLGTQTYICNVNHKPSNTKVDKKVEPKSCDKTHTCPPCPAPELYGGPDVFLFPPKPKDTLMISRTPEVTCVVVDVEHEDPEVKFNWYVDGVEVHNAKTKPREEQYNSTYRVVSVLTVLHQDWLNGKEYKCKVSNKALPAPIEKTISKAKGQPREPQVYTLPPSREEMTKNQVSLTCLVKGFYPSDIAVEWESNGQPENNYKTTPPVLDSDGSFFLYSKLTVDKSRWQQGNVFSCSVMHEALHNHYTQKSLSLSPGK light: DIVMTQSPATLSLSPGERATLSCRSSKSLQNVNGNTYLYWFQQKPGQSPQLLIYRMSNLNSGVPDRFSGSGSGTEFTLTISSLEPEDFAVYYCMQHLEYPITFGAGTKLEIKRTVAAPSVFIFPPSDEQLKSGTASVVCLLNNFYPREAKVQWKVDNALQSGNSQESVTEQDSKDSTYSLSSTLTLSKADYEKHKVYACEVTHQGLSSPVTKSFNRGEC
0.181 | 0.908 |  |  | 0.666 | 0.0197 | 0.903 |  |  | L235I (antibody, human IgG1, kappa, HuAM4G7 IgG1 Fc variant) heavy: not shown light: DIVMTQSPATLSLSPGERATLSCRSSKSLQNVNGNTYLYWFQQKPGQSPQLLIYRMSNLNSGVPDRFSGSGSGTEFTLTISSLEPEDFAVYYCMQHLEYPITFGAGTKLEIKRTVAAPSVFIFPPSDEQLKSGTASVVCLLNNFYPREAKVQWKVDNALQSGNSQESVTEQDSKDSTYSLSSTLTLSKADYEKHKVYACEVTHQGLSSPVTKSFNRGEC
 | 25 | no binding |  | 9.67 |  |  | no binding | no binding | L235Y/G236D/S267E (antibody, human IgG1, kappa, HuAM4G7 IgG1 Fc variant) heavy: EVQLVESGGGLVKPGGSLKLSCAASGYTFTSYVMHWVRQAPGKGLEWIGYINPYNDGTKYNEKFQGRVTISSDKSISTAYMELSSLRSEDTAMYYCARGTYYYGTRVFDYWGQGTLVTVSSASTKGPSVFPLAPSSKSTSGGTAALGCLVKDYFPEPVTVSWNSGALTSGVHTFPAVLQSSGLYSLSSVVTVPSSSLGTQTYICNVNHKPSNTKVDKKVEPKSCDKTHTCPPCPAPELYDGPSVFLFPPKPKDTLMISRTPEVTCVVVDVEHEDPEVKFNWYVDGVEVHNAKTKPREEQYNSTYRVVSVLTVLHQDWLNGKEYKCKVSNKALPAPIEKTISKAKGQPREPQVYTLPPSREEMTKNQVSLTCLVKGFYPSDIAVEWESNGQPENNYKTTPPVLDSDGSFFLYSKLTVDKSRWQQGNVFSCSVMHEALHNHYTQKSLSLSPGK light: DIVMTQSPATLSLSPGERATLSCRSSKSLQNVNGNTYLYWFQQKPGQSPQLLIYRMSNLNSGVPDRFSGSGSGTEFTLTISSLEPEDFAVYYCMQHLEYPITFGAGTKLEIKRTVAAPSVFIFPPSDEQLKSGTASVVCLLNNFYPREAKVQWKVDNALQSGNSQESVTEQDSKDSTYSLSSTLTLSKADYEKHKVYACEVTHQGLSSPVTKSFNRGEC
0.758 | 187 | no binding |  | 171 | 0.00436 |  |  |  | L235Y/S267E/L328F (antibody, human IgG1, kappa, HuAM4G7 IgG1 Fc variant) heavy: EVQLVESGGGLVKPGGSLKLSCAASGYTFTSYVMHWVRQAPGKGLEWIGYINPYNDGTKYNEKFQGRVTISSDKSISTAYMELSSLRSEDTAMYYCARGTYYYGTRVFDYWGQGTLVTVSSASTKGPSVFPLAPSSKSTSGGTAALGCLVKDYFPEPVTVSWNSGALTSGVHTFPAVLQSSGLYSLSSVVTVPSSSLGTQTYICNVNHKPSNTKVDKKVEPKSCDKTHTCPPCPAPELYGGPSVFLFPPKPKDTLMISRTPEVTCVVVDVEHEDPEVKFNWYVDGVEVHNAKTKPREEQYNSTYRVVSVLTVLHQDWLNGKEYKCKVSNKAFPAPIEKTISKAKGQPREPQVYTLPPSREEMTKNQVSLTCLVKGFYPSDIAVEWESNGQPENNYKTTPPVLDSDGSFFLYSKLTVDKSRWQQGNVFSCSVMHEALHNHYTQKSLSLSPGK light: DIVMTQSPATLSLSPGERATLSCRSSKSLQNVNGNTYLYWFQQKPGQSPQLLIYRMSNLNSGVPDRFSGSGSGTEFTLTISSLEPEDFAVYYCMQHLEYPITFGAGTKLEIKRTVAAPSVFIFPPSDEQLKSGTASVVCLLNNFYPREAKVQWKVDNALQSGNSQESVTEQDSKDSTYSLSSTLTLSKADYEKHKVYACEVTHQGLSSPVTKSFNRGEC
